Values of other authors as cited in publication PMC10065799, “High-throughput profiling of sequence recognition by tyrosine kinases and SH2 domains using bacterial peptide display” (eLife, 2023).
pKd: −log10 of the molar value.

Molecular target: PD1 phosphosite peptide (Homo sapiens) (UniProt Q15116)

pKd: 5.70
Substance: SHP2 N-SH2 (from UniProt Q06124)
